Laboratory results published in PMC3360003.

Key:
[1] = target: Influenza A virus matrix 1 (M1) protein with a C-terminal His6-tag (Influenza A virus A/chicken/Jiangsu/1/1998 (H9N2)); assay: […]; 0.2% ([…], pH 8.0, room temperature, 5 min; […]
[2] = target: Influenza A virus matrix 1 (M1) protein with a C-terminal His6-tag (Influenza A virus A/chicken/Jiangsu/1/1998 (H9N2)); assay: SEC; […], pH 5.0, 25°C; […]
[3] = target: Influenza A virus matrix 1 (M1) protein with a C-terminal His6-tag (Influenza A virus A/chicken/Jiangsu/1/1998 (H9N2)); assay: SEC

Measured: stoichiometry N

Influenza A virus matrix 1 (M1) protein with a C-terminal His6-tag (natural protein)
2: all assays above
